Measurements from PMC3781060.

Legend:
[1] = target: low-density lipoprotein (LDL) receptor-related protein-1 (LRP1) (rat (endogenous in PC12 cells and primary DRG neurons)) (UniProt G3V928)
[2] = target: low-density lipoprotein (LDL) receptor-related protein-1 (LRP1) (rat (endogenous in PC12 cells and primary DRG neurons)) (UniProt G3V928); remark: listed apart in the source

Sequence of UniProt G3V928 (G3V928 20-4545): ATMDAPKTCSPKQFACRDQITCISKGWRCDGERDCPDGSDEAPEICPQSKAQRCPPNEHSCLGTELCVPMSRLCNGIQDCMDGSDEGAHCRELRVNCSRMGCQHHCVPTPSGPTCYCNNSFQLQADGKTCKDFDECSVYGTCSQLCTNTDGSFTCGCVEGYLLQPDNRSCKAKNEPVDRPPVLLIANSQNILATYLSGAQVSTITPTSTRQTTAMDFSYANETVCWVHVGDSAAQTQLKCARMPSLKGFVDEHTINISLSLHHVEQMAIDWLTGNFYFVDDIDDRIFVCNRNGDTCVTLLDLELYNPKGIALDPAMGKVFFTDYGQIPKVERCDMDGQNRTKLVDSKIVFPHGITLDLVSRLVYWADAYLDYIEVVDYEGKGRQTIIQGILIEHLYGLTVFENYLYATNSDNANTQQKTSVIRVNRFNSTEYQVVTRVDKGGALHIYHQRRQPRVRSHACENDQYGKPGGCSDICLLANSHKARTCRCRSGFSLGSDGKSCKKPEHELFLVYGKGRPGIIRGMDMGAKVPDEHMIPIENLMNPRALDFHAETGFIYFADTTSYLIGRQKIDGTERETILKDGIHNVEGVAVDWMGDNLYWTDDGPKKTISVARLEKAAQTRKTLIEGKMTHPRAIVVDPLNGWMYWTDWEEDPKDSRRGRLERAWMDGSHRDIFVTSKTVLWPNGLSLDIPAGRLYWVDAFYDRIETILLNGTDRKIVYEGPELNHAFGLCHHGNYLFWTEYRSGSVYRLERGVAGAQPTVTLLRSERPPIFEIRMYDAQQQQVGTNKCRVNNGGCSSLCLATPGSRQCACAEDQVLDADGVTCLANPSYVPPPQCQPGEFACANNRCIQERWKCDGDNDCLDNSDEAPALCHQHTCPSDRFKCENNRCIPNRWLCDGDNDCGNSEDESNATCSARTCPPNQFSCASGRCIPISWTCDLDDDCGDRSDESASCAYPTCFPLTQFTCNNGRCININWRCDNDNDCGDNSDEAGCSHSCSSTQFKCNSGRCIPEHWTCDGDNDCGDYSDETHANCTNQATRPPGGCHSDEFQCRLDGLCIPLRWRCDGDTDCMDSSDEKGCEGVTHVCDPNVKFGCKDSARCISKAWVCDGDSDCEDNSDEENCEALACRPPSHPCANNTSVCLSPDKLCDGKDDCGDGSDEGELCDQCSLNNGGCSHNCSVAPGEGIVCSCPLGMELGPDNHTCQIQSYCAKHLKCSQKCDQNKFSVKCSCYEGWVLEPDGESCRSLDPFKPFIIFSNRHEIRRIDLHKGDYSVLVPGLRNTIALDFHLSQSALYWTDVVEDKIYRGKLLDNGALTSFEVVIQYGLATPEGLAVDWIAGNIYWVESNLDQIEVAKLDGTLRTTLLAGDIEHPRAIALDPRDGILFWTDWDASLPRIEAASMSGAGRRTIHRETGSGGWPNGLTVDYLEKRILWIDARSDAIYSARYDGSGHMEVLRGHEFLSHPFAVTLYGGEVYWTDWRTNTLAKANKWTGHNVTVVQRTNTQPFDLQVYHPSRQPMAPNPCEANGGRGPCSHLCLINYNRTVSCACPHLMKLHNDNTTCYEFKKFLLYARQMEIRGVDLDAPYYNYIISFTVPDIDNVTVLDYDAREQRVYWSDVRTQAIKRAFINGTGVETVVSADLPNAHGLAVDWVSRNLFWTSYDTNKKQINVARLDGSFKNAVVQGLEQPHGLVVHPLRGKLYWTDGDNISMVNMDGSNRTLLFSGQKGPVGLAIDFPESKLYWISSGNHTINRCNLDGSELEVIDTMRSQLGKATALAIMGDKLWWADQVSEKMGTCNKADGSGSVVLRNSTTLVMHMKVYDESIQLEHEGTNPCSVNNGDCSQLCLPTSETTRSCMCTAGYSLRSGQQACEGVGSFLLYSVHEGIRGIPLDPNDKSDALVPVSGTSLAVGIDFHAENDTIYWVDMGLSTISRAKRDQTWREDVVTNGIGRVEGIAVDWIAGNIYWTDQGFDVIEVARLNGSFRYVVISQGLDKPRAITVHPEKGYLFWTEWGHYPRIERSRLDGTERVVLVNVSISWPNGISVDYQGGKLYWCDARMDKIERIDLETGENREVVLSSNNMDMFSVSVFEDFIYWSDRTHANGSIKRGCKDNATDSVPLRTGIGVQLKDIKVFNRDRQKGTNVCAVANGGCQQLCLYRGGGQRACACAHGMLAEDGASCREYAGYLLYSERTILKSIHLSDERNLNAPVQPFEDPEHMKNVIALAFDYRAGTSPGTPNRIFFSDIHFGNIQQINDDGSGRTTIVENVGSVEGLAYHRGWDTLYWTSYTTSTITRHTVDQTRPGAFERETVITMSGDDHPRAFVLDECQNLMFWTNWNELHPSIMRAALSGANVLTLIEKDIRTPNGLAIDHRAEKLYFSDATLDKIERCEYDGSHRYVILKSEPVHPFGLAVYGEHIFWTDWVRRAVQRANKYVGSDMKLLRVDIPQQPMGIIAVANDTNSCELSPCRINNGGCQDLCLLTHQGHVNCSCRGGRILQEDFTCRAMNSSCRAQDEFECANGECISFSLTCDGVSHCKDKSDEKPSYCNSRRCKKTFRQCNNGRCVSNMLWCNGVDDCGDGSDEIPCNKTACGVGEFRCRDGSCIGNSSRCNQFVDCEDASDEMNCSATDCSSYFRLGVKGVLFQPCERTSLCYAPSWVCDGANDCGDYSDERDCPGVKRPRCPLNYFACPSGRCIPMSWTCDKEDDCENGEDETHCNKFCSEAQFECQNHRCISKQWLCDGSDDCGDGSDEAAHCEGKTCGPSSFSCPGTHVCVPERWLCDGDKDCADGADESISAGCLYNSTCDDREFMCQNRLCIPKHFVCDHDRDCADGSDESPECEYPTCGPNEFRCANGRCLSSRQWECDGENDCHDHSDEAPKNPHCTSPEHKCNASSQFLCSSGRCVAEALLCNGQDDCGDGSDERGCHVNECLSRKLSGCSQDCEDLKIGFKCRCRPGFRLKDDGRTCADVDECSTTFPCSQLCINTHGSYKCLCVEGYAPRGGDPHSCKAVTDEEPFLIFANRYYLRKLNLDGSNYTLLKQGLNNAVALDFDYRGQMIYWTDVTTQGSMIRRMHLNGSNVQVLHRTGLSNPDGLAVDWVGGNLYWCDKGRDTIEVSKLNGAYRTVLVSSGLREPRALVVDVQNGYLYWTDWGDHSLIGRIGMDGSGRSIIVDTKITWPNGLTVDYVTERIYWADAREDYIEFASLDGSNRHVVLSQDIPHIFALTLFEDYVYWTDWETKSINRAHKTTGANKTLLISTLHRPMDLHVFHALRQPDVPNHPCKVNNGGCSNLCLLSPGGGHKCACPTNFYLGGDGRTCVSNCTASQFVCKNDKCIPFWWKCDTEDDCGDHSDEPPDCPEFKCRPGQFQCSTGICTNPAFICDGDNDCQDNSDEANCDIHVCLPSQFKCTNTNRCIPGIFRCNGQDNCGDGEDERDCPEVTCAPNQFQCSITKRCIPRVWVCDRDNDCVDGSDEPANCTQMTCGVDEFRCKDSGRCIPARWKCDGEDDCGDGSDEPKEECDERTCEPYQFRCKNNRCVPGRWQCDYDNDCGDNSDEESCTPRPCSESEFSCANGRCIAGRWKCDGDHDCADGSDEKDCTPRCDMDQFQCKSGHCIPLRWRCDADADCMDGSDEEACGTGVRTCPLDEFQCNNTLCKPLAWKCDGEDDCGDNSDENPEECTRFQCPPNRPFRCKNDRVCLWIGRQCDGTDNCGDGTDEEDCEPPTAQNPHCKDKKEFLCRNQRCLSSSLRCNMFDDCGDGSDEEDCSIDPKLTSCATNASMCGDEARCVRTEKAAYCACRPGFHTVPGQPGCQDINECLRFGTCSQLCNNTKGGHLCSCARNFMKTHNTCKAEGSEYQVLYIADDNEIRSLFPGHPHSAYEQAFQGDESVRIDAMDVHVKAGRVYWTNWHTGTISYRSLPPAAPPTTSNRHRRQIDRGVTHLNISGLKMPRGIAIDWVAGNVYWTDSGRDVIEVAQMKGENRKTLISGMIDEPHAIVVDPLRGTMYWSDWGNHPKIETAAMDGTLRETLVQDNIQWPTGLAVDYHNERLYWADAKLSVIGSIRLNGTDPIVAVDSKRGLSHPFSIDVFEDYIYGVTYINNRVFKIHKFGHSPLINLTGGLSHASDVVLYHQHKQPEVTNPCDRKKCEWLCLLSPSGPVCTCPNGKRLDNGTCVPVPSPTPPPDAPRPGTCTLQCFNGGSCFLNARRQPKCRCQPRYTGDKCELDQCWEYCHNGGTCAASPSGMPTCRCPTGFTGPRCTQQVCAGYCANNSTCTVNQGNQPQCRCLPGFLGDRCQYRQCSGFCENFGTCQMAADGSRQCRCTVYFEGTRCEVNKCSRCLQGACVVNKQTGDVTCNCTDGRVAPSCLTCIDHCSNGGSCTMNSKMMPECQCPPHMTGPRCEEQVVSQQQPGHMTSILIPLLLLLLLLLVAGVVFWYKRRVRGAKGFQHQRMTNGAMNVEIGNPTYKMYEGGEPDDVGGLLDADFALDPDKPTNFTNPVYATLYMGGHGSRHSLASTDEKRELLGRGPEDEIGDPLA

neurite outgrowth of primary embryonic sensory neurons cultured for 2 weeks with MMP-9-PEX (100 nM), quantified as GAP-43 mRNA compared to GST [1] | neurite outgrowth of primary embryonic sensory neurons cultured for 2 weeks with RBD, compared to GST controls [2] | Molecule
15 fold |  | GST fusion protein of the hemopexin domain of matrix metalloprotease-9 (MMP-9-PEX) (domain or fragment)
 | > 40 fold | GST fusion protein of the Receptor Binding Domain of α2-macroglobulin (RBD) (domain or fragment) GAATFTRTGKAAQVTIQSSGTFSSKFQVDNNNRLLLQQVSLPELPGEYSMKVTGEGCVYLQTSLKYNILPEKEEFPFALGVQTLPQTCDEPKAHTSFQISLSVSYTGSRSASNMAIVDVKMVSGFIPLKPTVKMLERSNHVSRTEVSSNHVLIYLDKVSNQTLSLFFTVLQDVPVRDLKPAIVKVYDYYETDEFAIAEYNAPCSKDLGNA
